From patent publication US20060040324A1 come the findings set out here.

The target of test [1] is tuftsin receptor (human). Description: competition with 99mTc-labeled peptide on HL-60 cells.
Test [2] concerns the target tuftsin receptor (human). Put plainly: competition with trace 99mTc-labeled peptide on formalin-fixed human PMN leukocytes.
Test [3] concerns the target GP IIb/IIIa platelet receptor (integrin heterodimeric glycoprotein IIb/IIIa) (human) (UniProt P08514). Description: competition with trace 99mTc-labeled peptide on activated formalin-fixed human platelets.
UniProt P08514, sequence (P08514 32-1039, chain 1 of 2): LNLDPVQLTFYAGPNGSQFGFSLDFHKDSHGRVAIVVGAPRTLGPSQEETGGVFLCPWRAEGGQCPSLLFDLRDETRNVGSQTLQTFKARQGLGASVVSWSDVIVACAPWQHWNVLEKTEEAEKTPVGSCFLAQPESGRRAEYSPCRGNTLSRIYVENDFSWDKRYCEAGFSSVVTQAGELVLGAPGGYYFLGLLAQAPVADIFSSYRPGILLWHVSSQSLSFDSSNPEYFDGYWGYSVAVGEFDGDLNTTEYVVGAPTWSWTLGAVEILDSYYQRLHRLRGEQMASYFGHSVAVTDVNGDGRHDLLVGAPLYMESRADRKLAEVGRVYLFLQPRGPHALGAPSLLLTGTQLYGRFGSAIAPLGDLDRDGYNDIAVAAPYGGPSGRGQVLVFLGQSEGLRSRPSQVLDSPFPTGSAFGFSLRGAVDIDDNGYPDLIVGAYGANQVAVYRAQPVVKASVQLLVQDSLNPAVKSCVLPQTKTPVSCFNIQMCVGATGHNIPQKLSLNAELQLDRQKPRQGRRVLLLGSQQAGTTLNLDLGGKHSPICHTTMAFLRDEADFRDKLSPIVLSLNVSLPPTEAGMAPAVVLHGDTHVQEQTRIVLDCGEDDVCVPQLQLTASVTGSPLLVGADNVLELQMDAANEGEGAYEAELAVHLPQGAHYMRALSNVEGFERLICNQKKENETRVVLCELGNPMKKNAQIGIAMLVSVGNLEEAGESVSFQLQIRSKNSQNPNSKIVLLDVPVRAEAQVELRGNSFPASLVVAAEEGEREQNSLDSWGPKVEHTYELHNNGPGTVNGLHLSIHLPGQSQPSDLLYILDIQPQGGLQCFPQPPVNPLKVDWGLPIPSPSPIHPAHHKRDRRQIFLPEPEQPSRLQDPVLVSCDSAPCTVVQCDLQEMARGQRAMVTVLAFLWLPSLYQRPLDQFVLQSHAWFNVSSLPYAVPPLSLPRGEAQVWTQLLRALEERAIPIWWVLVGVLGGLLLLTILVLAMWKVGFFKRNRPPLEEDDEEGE
UniProt P08514, sequence (P05106 27-788, chain 2 of 2, further chain): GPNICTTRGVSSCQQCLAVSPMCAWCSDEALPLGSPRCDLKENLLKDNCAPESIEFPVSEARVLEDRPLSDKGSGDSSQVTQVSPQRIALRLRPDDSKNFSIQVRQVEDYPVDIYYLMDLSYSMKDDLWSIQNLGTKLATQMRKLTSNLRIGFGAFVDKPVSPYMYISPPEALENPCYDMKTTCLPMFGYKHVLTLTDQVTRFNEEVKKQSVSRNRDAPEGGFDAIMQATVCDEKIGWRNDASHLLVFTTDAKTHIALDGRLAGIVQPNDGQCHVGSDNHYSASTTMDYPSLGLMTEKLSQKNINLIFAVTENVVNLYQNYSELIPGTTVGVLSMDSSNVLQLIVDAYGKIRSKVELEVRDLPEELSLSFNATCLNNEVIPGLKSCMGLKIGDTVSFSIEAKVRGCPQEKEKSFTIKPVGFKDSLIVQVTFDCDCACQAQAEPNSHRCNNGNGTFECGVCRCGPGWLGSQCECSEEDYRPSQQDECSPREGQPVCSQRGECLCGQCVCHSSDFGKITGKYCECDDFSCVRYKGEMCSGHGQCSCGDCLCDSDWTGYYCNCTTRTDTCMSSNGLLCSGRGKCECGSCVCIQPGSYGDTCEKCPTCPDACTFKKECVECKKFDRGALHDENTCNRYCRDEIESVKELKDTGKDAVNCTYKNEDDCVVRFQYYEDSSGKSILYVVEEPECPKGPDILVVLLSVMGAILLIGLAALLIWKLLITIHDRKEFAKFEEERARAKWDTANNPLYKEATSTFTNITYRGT
Test [4] deals with tuftsin receptor (human). Put plainly: radioligand saturation binding, fresh and formalin-fixed human PMN leukocytes, filtration.
Test [5] addresses tuftsin receptor (human). Description: radioligand saturation binding, fresh and formalin-fixed HL-60 cells, filtration.
Test [6] addresses GP IIb/IIIa platelet receptor (integrin heterodimeric glycoprotein IIb/IIIa) (human) (UniProt P08514). Put plainly: radioligand saturation binding to human blood clots, carrier-free preparation.
Test [7] shares this target. Description: radioligand saturation binding, ADP-activated human platelets in platelet rich plasma, filtration.
Test [8] has the same target. Description: radioligand saturation binding to fresh human blood clots.
For test [9] the target is unchanged. Put plainly: radioligand saturation binding, ADP-activated formalin-fixed human platelets, filtration.
Test [10] deals with tuftsin receptor (human). Description: cell-based or functional assay.
The target in test [11] is tuftsin receptor (human). Description: binding to human leukocytes.
Test [12] addresses tuftsin receptor (human). Description: competition with 99mTc-labeled peptide on HL-60 cells. This is another data set of the same source.

Where no end group is shown, it is not given here. [ ]: non-standard residue; d: D form.

In general, IC50 refers to the midpoint of a concentration-inhibition curve. High values mean lower potency, low ones higher potency. “^99Tc-Thr-[D-Lys-Gly-D-Cys]-Arg (peptide)”: the concentration for half-maximal inhibition (IC50) with tuftsin receptor (human) [1] and with tuftsin receptor (human) [2] was 1 to 5 nM in each case.
In turn, ^99Tc-[D-Arg-Gly-D-Cys]-β-Ala (peptide) had an IC50 in [3] of 5 to 10 nM.
The Kd is the constant that tells how readily two partners part at equilibrium. Lower therefore signals a tighter complex. Consider “^99mTc-Thr-[D-Lys-Gly-D-Cys]-Arg (peptide)”, for which the Kd in the test with tuftsin receptor (human) [4] and with tuftsin receptor (human) [5] was 1 to 5 nM throughout.
As to “^99mTc-[D-Arg-Gly-D-Cys]-β-Ala (peptide)”, the equilibrium dissociation constant (Kd) in test [6], in [7], in test [8] and in [9] was 5 to 10 nM each time.
Take “^99mTc-labeled PEG8000-D-Arg-Gly-D-Cys-β-Ala (peptide)”: the Kd in [8] is 5 to 20 nM.
Turning to T[dK]G[dC]R (also: ReO[V] complexed to D-Lys-Gly-D-Cys) [Thr-ReO[V]-[D-Lys-Gly-D-Cys]-Arg], in the test with tuftsin receptor (human) [10], the nitroblue tetrazolium dye reduction (hexose monophosphate shunt activity) in human PMN granulocytes: concentration of maximum stimulation fell in the range of 1 to 5 nM and the stimulation of phagocytosis of heat inactivated yeast cells by human PMN granulocytes: concentration of maximal stimulation was determined as 1 nM.
T[dK]G[dC]R [Thr-D-Lys-Gly-D-Cys-Arg (unlabeled, not complexed to a metal ion)] had a dissociation constant (Kd) with tuftsin receptor (human) [11] of 100000 nM. In the test with tuftsin receptor (human) [2], this molecule gave an IC50 of 2000 to 5000 nM.
TKPR [natural tuftsin Thr-Lys-Pro-Arg] gave a nitroblue tetrazolium dye reduction (hexose monophosphate shunt activity) in human PMN granulocytes: concentration of maximal stimulation with tuftsin receptor (human) [10] of 100 nM. Also, the IC50 with tuftsin receptor (human) [12] and with tuftsin receptor (human) [2] was 100 nM throughout.
